In PMC1626583:

Biological target: FIII9–10 mutant Ala5, GST fusion protein (human)
Experiment: SPR

## integrin α5β1 (from UniProt P05556 21-798) (receptor)
  Kd: 63 nM
